These results are taken from publication PMC6368398.

For data set [1], the target named is RPA-wt (RPA70-RPA32-RPA14 heterotrimer) (Saccharomyces cerevisiae, UniProt P22336;P26754;P26755 1-621;1-273;1-122). Put plainly: FRET.
The next data set addresses scRad52 (Saccharomyces cerevisiae, UniProt P06778 1-471). Put plainly: FRET.

Sequence of RPA-wt (RPA70-RPA32-RPA14 heterotrimer) (P22336 whole entry, chain 1 of 3): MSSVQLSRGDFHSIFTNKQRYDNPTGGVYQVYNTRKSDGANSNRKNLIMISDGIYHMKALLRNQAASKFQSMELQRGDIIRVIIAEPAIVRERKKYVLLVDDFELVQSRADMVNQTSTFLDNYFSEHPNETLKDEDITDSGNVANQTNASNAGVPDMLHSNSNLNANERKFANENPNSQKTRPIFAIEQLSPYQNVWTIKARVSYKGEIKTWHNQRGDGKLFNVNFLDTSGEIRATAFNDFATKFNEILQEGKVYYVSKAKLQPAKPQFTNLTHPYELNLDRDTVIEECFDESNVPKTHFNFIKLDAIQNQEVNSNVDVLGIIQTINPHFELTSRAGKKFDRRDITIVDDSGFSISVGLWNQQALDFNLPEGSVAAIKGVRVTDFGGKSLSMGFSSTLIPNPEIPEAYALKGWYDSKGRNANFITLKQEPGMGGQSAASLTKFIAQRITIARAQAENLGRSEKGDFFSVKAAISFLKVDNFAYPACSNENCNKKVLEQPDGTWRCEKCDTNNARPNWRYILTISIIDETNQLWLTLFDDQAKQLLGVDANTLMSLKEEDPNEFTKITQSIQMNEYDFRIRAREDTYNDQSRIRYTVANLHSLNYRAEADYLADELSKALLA
Sequence of RPA-wt (RPA70-RPA32-RPA14 heterotrimer) (P26754 whole entry, chain 2 of 3): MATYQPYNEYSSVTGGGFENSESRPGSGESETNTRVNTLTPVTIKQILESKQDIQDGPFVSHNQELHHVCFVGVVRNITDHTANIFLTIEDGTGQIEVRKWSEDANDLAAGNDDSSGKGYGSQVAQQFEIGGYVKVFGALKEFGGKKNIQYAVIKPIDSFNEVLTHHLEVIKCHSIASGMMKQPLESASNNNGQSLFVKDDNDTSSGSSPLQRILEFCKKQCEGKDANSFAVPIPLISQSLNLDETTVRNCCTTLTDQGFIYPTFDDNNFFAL
Sequence of RPA-wt (RPA70-RPA32-RPA14 heterotrimer) (P26755 whole entry, chain 3 of 3): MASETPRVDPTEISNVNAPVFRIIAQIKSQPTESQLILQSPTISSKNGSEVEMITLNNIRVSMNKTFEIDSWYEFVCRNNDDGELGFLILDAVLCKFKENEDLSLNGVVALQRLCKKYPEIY
Sequence of scRad52 (P06778 whole entry): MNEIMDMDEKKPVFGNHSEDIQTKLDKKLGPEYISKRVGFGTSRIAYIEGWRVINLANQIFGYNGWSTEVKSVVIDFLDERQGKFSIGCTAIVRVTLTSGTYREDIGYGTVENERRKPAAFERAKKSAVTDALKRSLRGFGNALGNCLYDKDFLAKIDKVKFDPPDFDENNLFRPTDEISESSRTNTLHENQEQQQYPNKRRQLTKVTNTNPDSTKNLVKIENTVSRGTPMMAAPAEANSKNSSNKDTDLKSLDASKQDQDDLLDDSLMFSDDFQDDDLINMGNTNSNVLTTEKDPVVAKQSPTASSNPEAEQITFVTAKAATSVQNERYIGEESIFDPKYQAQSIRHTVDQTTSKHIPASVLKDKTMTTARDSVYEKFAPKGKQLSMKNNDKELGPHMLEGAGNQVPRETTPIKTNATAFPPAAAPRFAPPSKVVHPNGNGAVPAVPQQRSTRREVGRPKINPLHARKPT

As to TTTTTTTTTTTTTTTTTTTTTTTTTTTTTT (ssDNA) [Cy3-dT30-Cy5], the binding result (in data set [1]; with scRad52) was “binds” each time.
